One may read the EC50 as the concentration at which the effect is half-maximal.

Drawing on article PMC5630700 (Frontiers in Immunology, 2017), this text covers EC50 for 6 molecules.

The target of one assay is T1, mbp-NP632 fusion protein (Marburg virus Musoke-80, UniProt P27588).
T1 construct: source: E. coli (pE), purified
The assay can be described thus: ELISA. As to conditions: both partners purified. (In an ELISA, binding on a coated surface is turned into a signal by an enzyme label.)

Assay [1] deals with T2, nluc-NP632 fusion protein (Marburg virus Musoke-80, UniProt P27588).
T2 construct: source: E. coli, cytosolic (pENCO derivative), purified
In words: ELISA. As to conditions: both partners purified.

T1 sequence (P27588 632-695): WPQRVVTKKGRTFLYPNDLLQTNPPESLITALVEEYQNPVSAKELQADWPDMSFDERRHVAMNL

B1: sdAb A–Gaussia luciferase fusion (glucibody, pecan35) (VHH)
VHH: EVKLQESGGGLVQAGESLRLSCAVPPEVFDIRTVAWYRQVPLGKGRELLSSITPWNKTTYEDSVKDRFTISRDNAKYTVYLQMNDLKPEDTAVYYCAQGWGIASMRYWGQGTQVTVSS
notes: also called sdAb A glucibody; sdAb A–gluc; source: E. coli Tuner + pRARE, periplasmic (pecan35), purified
With B1, the concentration for a half-maximal effect (EC50) with mbp-NP632 fusion protein stood at 15.4 nM.

B2: sdAb A as a BAP fusion (from pecan126) (VHH)
VHH: B1 VHH
notes: also called wild-type sdAb A; source: E. coli HBV88 (pecan126), purified
The molecule B2 yielded an EC50 in assay [1] of 12.8 nM.

B3: sdAb B–Gaussia luciferase fusion (glucibody, pecan35) (VHH)
VHH: KVQLQESGGGLVQAGGSLRLSCAASGGTFSINTLGWYRRAPGKEREFVARISSGGITRYADSVKGRFTISRDNGKNTVYLDMNSLKPEDTAVYYCMYRNWGGGLDVYWGQGTQVTVSS
notes: also called sdAb B glucibody; sdAb B–gluc; source: E. coli Tuner + pRARE, periplasmic (pecan35), purified
Take B3: in the assay with mbp-NP632 fusion protein, a half-maximal effect (EC50) was put at 189 nM.

B4: sdAb B as a BAP fusion (from pecan126) (VHH)
VHH: B3 VHH
notes: also called wild-type sdAb B; source: E. coli HBV88 (pecan126), purified
On to B4, for which the midpoint of the response in assay [1], the EC50, lay at 28.5 nM.

B5: sdAb C–Gaussia luciferase fusion (glucibody, pecan35) (VHH)
VHH: KVQLQESGGGLVQVGGSLRLSCKASGFTFRSSAMGWYRRAPGKQRELVASLTTTGTADYGDFVKGRFTISRDNAENTVDLHMNSLKPEDTAVYYCHEDPYGMESLRYWGQGTQVTVSS
notes: also called sdAb C glucibody; sdAb C–gluc; source: E. coli Tuner + pRARE, periplasmic (pecan35), purified
In the assay with mbp-NP632 fusion protein, B5 registered an EC50 of 22.3 nM.

B6: sdAb C as a BAP fusion (from pecan126) (VHH)
VHH: B5 VHH
notes: also called wild-type sdAb C; source: E. coli HBV88 (pecan126), purified
B6 yielded an EC50 in assay [1] of 26.6 nM.
